Results reported in US20170275344A1, “POLYPEPTIDES AND USES THEREOF AS A DRUG FOR TREATMENT OF AUTOIMMUNE DISORDERS” (Compugen Ltd., priority 2014, published 2017).

Experiments:
NOD mice = experiment: Type 1 diabetes incidence in NOD mice (blood glucose monitoring); format: in vivo, mouse; settings: for mice that developed T1D: 100 ug/dose
Experimental: The effect of C1ORF32 ECD-Fc treatment on modulation of disease incidence was tested in NOD mice, which spontaneously develop a T1D disease. In NOD mice, autoreactive CD4+ can be observed within the β-islets as early as 2 weeks of age (Yang et al., Immunity 1996 February; 4(2):189-94), and by 10 weeks of age, when the treatment with C1ORF32 ECD-Fc (SEQ ID NO: 42) began in the present experiments, NOD mice develop peri-insulitis and β-cell loss (Jimeno et al., Immunology and Cell Biology. (2010) 88, 734-745).
Materials: C1ORF ECD-Fc (SEQ ID NO:42) was used in these studies, as described below. Control Ig was mouse IgG2a from BioXcell (Cat# BE0085). NOD mice were purchased from Jackson labs, and blood glucose was measured via sampling a small drop of blood from the tail vein.
Methods: Six week old NOD mice were purchased from Jackson labs. At 10 weeks of age, mice were split into groups and treated with either vehicle (PBS) Control Ig or C1ORF ECD-Fc (SEQ ID NO:42) as detailed below. Treatment was given via IP injections 3×/wk/2 wks. Blood glucose levels were monitored weekly from 8 weeks of age until the mice reached […] of age as detailed below. Mice were considered diabetic upon having two consecutive blood glucose readings of >250 mg/dL. Diabetic mice were sacrificed on the day of the second high glucose level reading. Blood glucose levels were obtained from the tail vein, and the level of blood glucose measured via use of a OneTouch. UltraSmart. Blood Glocuse Monitoring System (OneTouch; Johnson & Johnson; New Brunswick, N.J.) in a blinded manner. This study was carried out 3 times; For study 3 proteins were provided coded.
Treatment groups (n=5 mice/group): 1. Control Ig (mouse IgG2a), 100 ug/dose 2. C1ORF ECD-Fc (SEQ ID NO:42), 100 ug/dose.
Treatment groups (n=14-15): 1. Control Ig (mouse IgG2a; BioXcell) (100 ug/dose) 2. C1ORF ECD-Fc (SEQ ID NO:42) (100 ug/dose)

SJL/J mice = experiment: Adoptive transfer R-EAE, clinical score; format: in vivo, mouse
Experimental: Female SJL/J mice were primed with 50 ug of PLP139-151/CFA according to the standard laboratory protocol on day 0. On day 8 post disease induction, the inguinal lymph nodes were collected and the total lymph node cells were re-activated in culture in the presence of PLP139-151 for 3 days. At the end of culture, cells were collected and transferred into naive recipient SJL/J mice.
a. Mice were shaved (about a lin.xlin, square on the back between the hind flanks) and injected with CFA/PLP139-151 emulsion at 100 μl per mouse s.c., divided between three spots on the back and flanks. Peptide and final dose given per mouse: 50 μg of PLP139-151 peptide on day 0.
b. On day 8 post priming with PLP139-151/CFA, the draining inguinal lymph nodes were collected, and single cell suspensions were prepared. Total lymph node cells were cultured at a density of 8×10^6 cells per ml in the HL-1 medium plus PLP139-151 peptide (20 μg/ml) in T75 flasks.
c. After 3 days of culture, the PLP139-151 reactivated cells were collected and counted using an hemacytometer. The number of total viable cells and the number of blast cells was determined. The percentage of blast cells expected following this protocol is 20-30% of the total viable cells.
d. Unless otherwise specified, 3×10^6 cells were transferred to each recipient mouse by intravenous injection.
f. Mice were scored on the indicated days, on a 0-5 disease score scale per standard laboratory protocol: 0, no abnormality; 1, limp tail; 2, limp tail and hind limb weakness; 3, hind limb paralysis; 4, hind limb paralysis and forelimb weakness; and 5, moribund.

total splenocytes = experiment: Ex vivo recall responses of splenocytes, week 8 post bone marrow transplant; format: cell-based, mouse
Experimental: (§1) On week 8 post bone marrow cell transplantion, total splenocytes (5×10^5 cells/well) were cultured in the presence of medium alone (no stimulation), anti-CD3 (1 ug/ml), DBY peptide (10 ug/ml), irradiated male splenocytes (5×10^5 cells/well), or irradiated female splenocytes (5×10^5 cells/well). The individual splenocyte samples were cultured separately in triplicate wells. For T cell proliferative response, the cultures were pulsed with 1 uCi of tritiated thymidine at 24 hours and harvested at 72 hours post culture initiation. The statistical analysis carried out on the data is one-way ANOVA followed by Dunnett's post test as compared to the mice receiving male CD45.1+ bone marrow cells plus Control Ig treatment, p-values*<0.05, **<0.01,***<0.001, and #<0.0001.
as §1, with “transplant,” for “transplantion,”, “For” for “For T cell proliferative response,”, “cytokine cultures, the supernatants” for “cultures”, “collected” for “pulsed with 1 uCi of tritiated thymidine at 24 hours and harvested”, “initiation and the level of secreted cytokine was determined via LiquiChip.” for “initiation.”
These same populations of cells were analyzed at week 8 within the spleen. In addition, the proliferative and secreted cytokine responses of total splenocytes in ex vivo recall cultures were tested in the presence of medium alone, anti-CD3 (1 ug/ml), the HY antigen DBY peptide (NAGFNSNRANSSRSS; Genemed Synthesis; San Antonio, Tex.) (10 ug/ml), irradiated male splenocytes (1:1 ratio), or irradiated female splenocytes (1:1 ratio).

[1] = combined data from all 3 studies

B1: C1ORF32 ECD-Fc (SEQ ID NO:42): fusion protein of human C1ORF32 ECD fused to mouse immunoglobulin Fc (human-mouse fusion protein) (protein)
chain: LQVTVPDKKKVAMLFQPTVLRCHFSTSSHQPAVVQWKFKSYCQDRMGESLGMSSTRAQSLSKRNLEWDPYLDCLDSRRTVRVVASKQGSTVTLGDFYRGREITIVHDADLQIGKLMWGDSGLYYCIITTPDDLEGKNEDSVELLVLGRTGLLADLLPSFAVEIMGSENLYFQGSGEPRGPTIKPCPPCKCPAPNLLGGPSVFIFPPKIKDVLMISLSPIVTCVVVDVSEDDPDVQISWFVNNVEVHTAQTQTHREDYNSTLRVVSALPIQHQDWMSGKEFKCKVNNKDLPAPIERTISKPKGSVRAPQVYVLPPPEEEMTKKQVTLTCMVTDFMPEDIYVEWTNNGKTELNYKNTEPVLDSDGSYFMYSKLRVEKKNWVERNSYSCSVVHEGLHNHHTTKSFSRTPGK
modifications: Fusion protein human C1ORF32-ECD fused to mouse IgG2a Fc
- mice prevented from developing full blown autoimmune diabetes (NOD mice; NOD mice, overall statement): 77%
- mice that did not develop T1D (NOD mice; Study I, n=5, 100 ug/dose IP 3x/wk for 2 wks from 10 wks of age): 3 out of 5
- mice that developed T1D (NOD mice; Study II, n=6): 1 out of 6
- mice that developed T1D (NOD mice; Study III, n=14-15, by the age of 24 weeks): 3 out of 15
- mice in which T1D was observed (NOD mice; [1]): 6 out of 26
- percent of mice in which T1D was observed (NOD mice; [1]): 23%
- clinical signs of the disease (mean clinical score) (SJL/J mice; 100 ug/mouse i.p. 3x/wk for 2 wks from onset of disease remission, two studies): robust inhibition of clinical signs of the disease
- disease induction (SJL/J mice; study Cgen data, treatment from the time of cell transfer, 100 ug/dose i.p. 3x/wk for 2 wks): complete abolishment of disease induction
- disease development (SJL/J mice; study MYC48 FACS, treatment from the time of cell transfer, 100 ug/dose i.p. 3x/wk for 2 wks): abolished disease development
- inflammatory cytokines (IFN-gamma, IL-17, GM-CSF, IL-12, IL-2 and TNF-alpha) (total splenocytes; activation with male irradiated splenocytes or DBY peptide, vs Ig control treated mice): significantly lower levels
- IFNg, IL-17, IL-2, IL-12 and GM-CSF secretion (total splenocytes; cultures stimulated with male irradiated splenocytes): inhibitory trend
- level of IL-10 and IL-4 secreted (total splenocytes; splenocytes of treated mice, in response to male or female splenocytes): significantly increased
